B1: wt ALKBH3: wild-type human Fe(II)/2OG-dependent dioxygenase ALKBH3 with N-terminal His-tag, expressed in E. coli (protein, UniProt Q96Q83 1-286, looked up)
Alpha-ketoglutarate-dependent …: MEEKRRRARVQGAWAAPVKSQAIAQPATTAKSHLHQKPGQTWKNKEHHLSDREFVFKEPQQVVRRAPEPRVIDREGVYEISLSPTGVSRVCLYPGFVDVKEADWILEQLCQDVPWKQRTGIREDITYQQPRLTAWYGELPYTYSRITMEPNPHWHPVLRTLKNRIEENTGHTFNSLLCNLYRNEKDSVDWHSDDEPSLGRCPIIASLSFGATRTFEMRKKPPPEENGDYTYVERVKIPLDHGTLLIMEGATQADWQHRVPKEYHSREPRVNLTFRTVYPDPRGAPW
modifications: N-terminal His-tag
notes: wild-type human Fe(II)/2OG-dependent dioxygenase ALKBH3 with N-terminal His-tag, expressed in E. coli
B2: Y143A ALKBH3: ALKBH3 mutant, Tyr143 replaced with Ala (protein, UniProt Q96Q83 1-286, looked up, variant Y143A)
Alpha-ketoglutarate-dependent …: B1 Alpha-ketoglutarate-dependent … with Y143A
B3: L177A ALKBH3: ALKBH3 mutant, Leu177 replaced with Ala (protein, UniProt Q96Q83 1-286, looked up, variant L177A)
Alpha-ketoglutarate-dependent …: B1 Alpha-ketoglutarate-dependent … with L177A
B4: Y143F ALKBH3: ALKBH3 mutant, Tyr143 replaced with Phe (protein, UniProt Q96Q83 1-286, looked up, variant Y143F)
Alpha-ketoglutarate-dependent …: B1 Alpha-ketoglutarate-dependent … with Y143F
B5: H191A ALKBH3: ALKBH3 mutant, His191 replaced with Ala (protein, UniProt Q96Q83 1-286, looked up, variant H191A)
Alpha-ketoglutarate-dependent …: B1 Alpha-ketoglutarate-dependent … with H191A

Where a chain is given by its changes, count along the chain named. Names and notes keep the numbering of the source.

5 molecules from publication PMC10816986, “The Role of Key Amino Acids of the Human Fe(II)/2OG-Dependent Dioxygenase ALKBH3 in Structural Dynamics and Repair Activity toward Methylated DNA” (International Journal of Molecular Sciences, 2024) can be followed below.

The first series is described as follows: Equilibrium fluorescence titration with Fe(II). It is filed as binding. Conditions: 1 µM apoprotein, 25 °C; read-out: Dissociation constant Kd, Fe(II). The text has this: (§1) To investigate the impact of selected mutations on ALKBH3’s ability to bind its cofactor, co-substrate, and methylated DNA, the fluorescent titration method was employed. It is well-established that enzyme–ligand binding typically leads to a protein conformational change, which in turn can alter the fluorescence intensity of tryptophan and tyrosine residues within the protein sequence. […] In this study, transitional metals (Fe(II), Ni(II), and Co(II)), 2OG, and the m3C substrate served as titrants. Protein fluorescence quenching was measured after the addition of an excess of the ligand to 1 µM of enzyme (Supplementary Figure S2). To determine the equilibrium dissociation constant’s Kd values, the resulting titration curves were analyzed using a non-linear regression algorithm (see Section 4.3 of “Materials and Methods” for details). […] As indicated by the data presented in Table 2, the stability of the wt ALKBH3 apoenzyme’s affinity to various ligands and damaged DNA generally corresponds to the stability of such complexes for AlkB and ALKBH2 enzymes. […] The binding of Ni(II) and Co(II) ions of similar radii was weakened by approximately two-fold. […] This behavior is more characteristic of the bacterial homolog AlkB rather than human ALKBH2 [7].
(§2) The intrinsic tryptophan fluorescence quenching was monitored at the maximum of emission (345 nm, in most cases) using an excitation wavelength of 280 nm, and 5 nm slits. An amount of 2 mM of (NH4)2Fe(SO4)2·6H2O, 2 mM of NiSO4×7H2O, 2 mM of CoSO4·7H2O, 2 mM of 2OG, or 100 µM of m3C substrate was titrated into 1 µM of apoprotein (a free enzyme with no metal or 2OG added) in the presence of 50 mM of HEPES-KOH (pH 7.8), 50 mM of KCl, and 10 mM of MgCl2. When titrating with DNA, the buffer was supplemented with 2 mM of EDTA. The dissociation constant Kd for a model of one-step binding (E + L ↔ EL) was determined using Equations (2)–(5) and a non-linear regression algorithm in the OriginPro 8.1 software (OriginLab Corp., Northampton, MA, USA):(2) Kd=E[L]/[EL] (3) F=f0+f1E+f2[EL] (4) e0=E+[EL] (5) l0=L+[EL] where F is the observed fluorescence intensity at any given ligand (L) concentration; f0 is the background fluorescence; f1 and f2 are partial fluorescence intensities of the free enzyme (E) and enzyme–ligand complex (EL), respectively; e0 and l0 are total concentrations of the enzyme and ligand.
(§3) Figure S2. Equilibrium binding of the wild-type and mutant ALKBH3 proteins to transition metals, 2OG, or m3C-containing DNA. The quenching of the enzyme ﬂuorescence is shown as a function of Fe(II) (A), Ni(II) (B), Co(II) (C), 2OG ( D), and single-stranded m3C substrate (E). The protein concentration was 1 µM. In the course of titration by Fe(II), a sodium ascorbate (1mM) was added to keep the metal in a reduced state. Experimental data points were ﬁtted to a single-site binding mode l (see “Materials and Methods”). Each trace represents the average of three technical […]
(§4) (1 picture or pasted object on this page, not shown here)
As for B1, the Kd worked out at 25 ± 2 µM.
In the case of B2, the Kd worked out at 25 ± 3 µM.
In the case of B3, the Kd is 24 ± 2 µM.
Take B4: the Kd stood at 23 ± 2 µM.
As for B5, the Kd is 20 ± 2 µM.

A short description of the next series: Equilibrium fluorescence titration with Ni(II). It is filed as binding. Conditions: 1 µM apoprotein, 25 °C; read-out: Dissociation constant Kd, Ni(II).
From the text: as §1, §2, §3, §4
B1: the Kd is 42 ± 4 µM.
With B2, the Kd was determined as 60 ± 7 µM.
For B3, the Kd stood at 90 ± 10 µM.
B4: the Kd was found to be 42 ± 3 µM.
The same measure, in the same setting: with B5 the figure was 50 ± 4 µM.

The nature of a further series: Equilibrium fluorescence titration with 2OG. It is filed as binding. Conditions: 1 µM apoprotein, 25 °C; listed as wt; read-out: Dissociation constant Kd, 2OG.
From the text: as §1, §2, §3, §4
Regarding B1, the Kd amounted to 52 ± 7 µM.

Staying with this series, now noted: 1 µM apoprotein, 25 °C; read-out: Dissociation constant Kd, 2OG.
Regarding B1, the Kd was approximately 50 µM.
For B2, the Kd amounted to 53 ± 10 µM.
Turning to B3, the Kd was found to be 67 ± 8 µM.
As to B4, the Kd came to 52 ± 4 µM.
Still for that read-out and setting: with B5 the figure was 34 ± 2 µM.

A short description of another series: Far-UV CD spectroscopy, secondary structure content (BeStSel). In kind it is physicochemical.
Settings: not given
Here is the method:
To assess the effect of key amino acid substitution on the ALKBH3’s secondary structure content circular CD spectra of each protein variant in the apo state were recorded in accordance with experimental conditions optimized in our previous study.
The secondary structure content was determined by processing experimental spectra using the […] (BeStSel, Budapest, Hungary) and CDSSTR (DichroWeb, London, UK) algorithms. […] A detailed description of the parameter optimization process for each algorithm is provided in our recent work. The BeStSel package was selected for further analysis as it provides more information regarding the structural organization of the protein. As follows from data summarized in Table 3, antiparallel β-strands predominate in the structure of the wild-type ALKBH3 (37.6%), with a considerable portion existing in right-twisted and relaxed conformations. The protein sequence also contains a significant number of loop motifs (12.6%) and poorly ordered structures (~44.7%), which may constitute the N-terminal domain. Only 5.2% of the amino acid sequence is composed of α-helices. Utilizing the protein architecture and topology prediction feature available in BeStSel, it was established that the obtained CD spectrum belongs (with a probability of 96%) to the class of β-proteins with a sandwich or β-barrel architecture. Such a distribution corresponds to the structure of ALKBH3 determined by X-ray crystallography for a truncated form of the enzyme lacking 69 amino acids from the N-terminus (PDB 2IUW). Specifically, the β7-β14 strands form two antiparallel sheets of a central “jellyroll” fold, which constitutes the catalytically active DSBH domain (Figure 1). Thus, the CD method we selected enabled us to determine the composition of the secondary structure of ALKBH3 with a high degree of precision.
Far-UV CD spectra from 185 to 280 nm were recorded using a J600 spectrometer (Jasco, Tokyo, Japan) in a 0.1 cm path lengths quartz cuvette (Starna Cells, CA, USA). In all cases, the protein sample (~50 nmol) was dialyzed two times against the CD buffer containing 10 mM of Potassium Phosphate (pH 7.8) and 50 mM of (NH4)2SO4. […] Data were corrected for a baseline by subtraction of the buffer spectrum and expressed as mean residue ellipticity [θ] […] To estimate the secondary structures, each spectrum between […] and 250 nm was analyzed by both the DichroWeb and BeStSel online programs using the CDSSTR method.
Figure 5 Far-UV CD spectra of wt (blue), Y143F (yellow), Y143A (green), L177A (red), and H191A (purple) ALKBH3 collected from 0.2 mg/mL protein at 11 °C in the absence of ligands. Each spectrum was measured three times, corrected for background, averaged, and expressed as mean residue ellipticity θ (deg·cm^2·dmol^−1).
On to B2, for which the “increase in α-helical content over wt ALKBH3” value is recorded as 3 fold.
Take B3: the “increase in α-helical content over wt ALKBH3” value was determined as 2.7 fold.
Same read-out and setting: the value for B5 was “up to 3.1 fold”.

The same series, now with this note: sum of Table 3 components.
As to B1, the “α-helices, total” value amounted to 5.2%.
